Results as given in IntAct's records for PubMed 29039417.

B1: BBSome complex member BBS5 (Homo sapiens), Q8N3I7 (parent)
chain: MSVLDALWEDRDVRFDLSAQQMKTRPGEVLIDCLDSIEDTKGNNGDRGRLLVTNLRILWHSLALSRVNVSVGYNCILNITTRTANSKLRGQTEALYILTKCNSTRFEFIFTNLVPGSPRLFTSVMAVHRAYETSKMYRDFKLRSALIQNKQLRLLPQEHVYDKINGVWNLSSDQGNLGTFFITNVRIVWHANMNDSFNVSIPYLQIRSIKIRDSKFGLALVIESSQQSGGYVLGFKIDPVEKLQESVKEINSLHKVYSASPIFGVDYEMEEKPQPLEALTVEQIQDDVEIDSDGHTDAFVAYFADGNKQQDREPVFSEELGLAIEKLKDGFTLQGLWEVMS
partner: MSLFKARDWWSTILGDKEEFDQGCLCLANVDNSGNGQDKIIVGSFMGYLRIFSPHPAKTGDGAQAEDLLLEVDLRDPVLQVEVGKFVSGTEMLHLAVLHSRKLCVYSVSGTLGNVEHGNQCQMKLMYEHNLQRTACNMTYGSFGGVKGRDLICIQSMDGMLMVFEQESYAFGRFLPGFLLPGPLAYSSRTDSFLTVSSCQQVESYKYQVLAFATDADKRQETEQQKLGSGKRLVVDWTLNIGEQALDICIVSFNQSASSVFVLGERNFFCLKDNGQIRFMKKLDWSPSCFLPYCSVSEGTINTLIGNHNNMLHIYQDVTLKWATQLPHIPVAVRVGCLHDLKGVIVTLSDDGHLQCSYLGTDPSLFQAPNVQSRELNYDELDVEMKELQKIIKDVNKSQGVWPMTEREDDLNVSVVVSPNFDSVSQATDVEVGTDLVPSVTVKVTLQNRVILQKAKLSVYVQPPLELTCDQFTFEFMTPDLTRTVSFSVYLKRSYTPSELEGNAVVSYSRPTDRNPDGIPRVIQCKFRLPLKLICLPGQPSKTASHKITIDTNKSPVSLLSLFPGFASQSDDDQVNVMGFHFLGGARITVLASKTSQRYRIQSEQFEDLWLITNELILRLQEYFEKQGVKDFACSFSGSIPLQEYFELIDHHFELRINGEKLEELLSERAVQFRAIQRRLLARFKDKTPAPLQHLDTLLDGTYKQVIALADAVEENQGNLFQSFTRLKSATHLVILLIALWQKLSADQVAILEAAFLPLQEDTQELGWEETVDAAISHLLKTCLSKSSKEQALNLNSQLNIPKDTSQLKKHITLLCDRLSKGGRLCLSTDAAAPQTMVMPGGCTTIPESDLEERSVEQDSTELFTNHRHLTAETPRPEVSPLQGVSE

Variants of: B1
Conditions: with pthb1_human BBS9, Q3SYG4

effect of a mutation on the interaction | Variant
with no effect | H295A
with no effect | H295E
with no effect | H295K
with no effect | D291A
with no effect | V281K
with no effect | V281A
with no effect | A304E
with no effect | A304K
with no effect | Q274E
with no effect | D293E
with no effect | D293K
with no effect | P275E
with no effect | P275K
disrupting interaction strength | F303A
with no effect | F303K
with no effect | T296A
with no effect | T296E
with no effect | E289K
with no effect | G294E
with no effect | G294K
with no effect | S292A
with no effect | S292E

effect of a mutation on the interaction | Variant
with no effect | S292K
with no effect | A298K
with no effect | A298E
with no effect | Y302A
with no effect | Y302E
with no effect | G306E
with no effect | G306K
with no effect | G306A
with no effect | E277A
with no effect | Q283A
with no effect | Q283E
with no effect | L279A
disrupting interaction strength | Q285A
with no effect | Q285E
with no effect | I284E
with no effect | I284K
with no effect | F299K
with no effect | F299A
with no effect | I290A
with no effect | D305K
with no effect | L276E
with no effect | L276A

The next lines start with the variant.

Variant | effect of a mutation on the interaction
D297E | with no effect
D297K | with no effect
D297A | with no effect
D291K | with no effect
D291E | with no effect
A278K | with no effect
A278E | with no effect
V281E | with no effect
T280E | with no effect
T280A | with no effect
T280K | with no effect
V288K | with no effect
V288E | with no effect
V288A | with no effect
Q274A | with no effect
Q274K | with no effect
A301K | with no effect
A301E | with no effect
D293A | with no effect
P275A | with no effect
F303E | with no effect
T296K | with no effect
E282K | with no effect
E282A | with no effect
E289A | with no effect

Variant | effect of a mutation on the interaction
G294A | with no effect
Y302K | disrupting interaction strength
E277K | with no effect
Q283K | with no effect
L279K | with no effect
L279E | with no effect
D286E | with no effect
D286K | with no effect
D286A | with no effect
N307A | with no effect
D287K | with no effect
D287E | with no effect
D287A | with no effect
Q285K | with no effect
V300E | with no effect
V300K | with no effect
V300A | with no effect
I284A | with no effect
F299E | with no effect
I290E | with no effect
I290K | with no effect
D305A | with no effect
D305E | with no effect
L276K | with no effect
